According to publication PMC10333598:
One block for each molecule: values may come before it.

Experiments:
Bcl-xL (Homo sapiens) = Bcl-xL (Homo sapiens) (UniProt Q07817); experiment: ITC; settings: cited from earlier work
Mcl-1 (Homo sapiens) = Mcl-1 (Homo sapiens) (UniProt Q07820); settings: cited from earlier work
[1] = target: human Mcl-1 ΔPESTΔTM (human); experiment: NMR titration; 15N SOFAST-HMQC of 15N-Mcl-1 (100 μM) with unlabeled BH3 peptide added (TCTPBH3 0-500 μM, up to 5 eq.; TCTPBH3D16I and MuleBH3 up to 3 eq.); 950 MHz, 308 K, 50 mM MES pH 6.5, 50 mM EPPS, 50 mM NaCl, 2 mM TCEP; KD and koff from TITAN 2D line shape analysis, two-state model
[2] = target: human Mcl-1 ΔPESTΔTM (human); experiment: NMR competition (15N SOFAST-HMQC); 15N-Mcl-1 with an excess (5 eq. total) of an equimolar mix of TCTPBH3, TCTPBH3D16I and MuleBH3, 2 h at room temperature; populations from intensities of seven reporter residues; 950 MHz, 298 K, 50 mM MES pH 6.5, 50 mM EPPS, 50 mM NaCl, 2 mM TCEP
[3] = target: human Mcl-1 ΔPESTΔTM (human); experiment: SEC + other: SAXS; equimolar mix of TCTP and Mcl-1 (500 μM each), 2 h incubation, Superdex 200 10/300 in line with SAXS; 50 mM CHES pH 9, 50 mM NaCl, 2 mM TCEP; 37 °C (308 K in the legend)

UniProt Q07820, sequence (Q07820 whole entry): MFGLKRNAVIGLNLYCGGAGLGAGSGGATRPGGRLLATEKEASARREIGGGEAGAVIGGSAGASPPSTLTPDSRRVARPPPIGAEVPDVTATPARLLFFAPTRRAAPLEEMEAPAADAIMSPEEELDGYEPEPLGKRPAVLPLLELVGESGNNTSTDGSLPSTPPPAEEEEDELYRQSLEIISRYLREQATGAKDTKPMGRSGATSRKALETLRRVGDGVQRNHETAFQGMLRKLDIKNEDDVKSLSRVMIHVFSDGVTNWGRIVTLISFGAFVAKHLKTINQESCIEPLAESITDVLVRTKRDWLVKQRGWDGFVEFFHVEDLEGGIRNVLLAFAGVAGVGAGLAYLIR
UniProt Q07817, sequence (Q07817 whole entry): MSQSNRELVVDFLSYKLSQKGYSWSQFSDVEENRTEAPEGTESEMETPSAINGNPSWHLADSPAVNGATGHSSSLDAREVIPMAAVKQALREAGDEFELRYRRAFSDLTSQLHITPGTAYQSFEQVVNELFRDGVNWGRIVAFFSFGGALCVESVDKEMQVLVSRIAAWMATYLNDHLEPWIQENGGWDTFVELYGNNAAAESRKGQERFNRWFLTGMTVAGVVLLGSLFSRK

Molecule: TCTP BH3 (from UniProt P13693)
Kd (Bcl-xL (Homo sapiens)): 12 µM

Molecule: Mule BH3 (from UniProt Q7Z6Z7)
Kd (Mcl-1 (Homo sapiens)): 29 nM

Molecule: DEMFSDIYKIREIADGLCLEVE [TCTP BH3-like peptide (TCTPBH3)]
Kd [1]: 7.9 µM
koff [1]: 56 s⁻¹
fold weaker affinity than TCTPBH3D16I and MuleBH3 [2]: 10 fold

Second part, the molecule after the results:

relative population of Mcl-1 bound (in the mix of three peptides) [2]: 45%
Molecule: DEMFSIIYKIREIADGLCLEVE [TCTP BH3-like peptide D16I mutant (TCTPBH3D16I)]

stoichiometry N [3]: 1
B1: full-length human TCTP (FL-TCTP) (natural protein)
chain: MIIYRDLISHDEMFSDIYKIREIADGLCLEVEGKMVSRTEGNIDDSLIGGNASAEGPEGEGTESTVITGVDIVMNHHLQETSFTKEAYKKYIKDYMKSIKGKLEEQRPERVKPFMTGAAEQIKHILANFKNYQFFIGENMNPDGMVALLDYREDGVTPYMIFFKDGLEMEKC
